In publication PMC4633474, “Kinetic properties and stability of glucose dehydrogenase from Bacillus amyloliquefaciens SB5 and its potential for cofactor regeneration” (AMB Express, 2015):

Legend:
Experiment in all cases: purified protein
Assay type in all cases: biochemical, Bacillus amyloliquefaciens
purified protein [1] = substrate: NC(=O)c1ccc[n+]([C@@H]2O[C@H](COP(=O)(O)OP(=O)(O)OC[C@H]3O[C@@H](n4cnc5c(N)ncnc54)[C@H](O)[C@@H]3O)[C@@H](O)[C@H]2O)c1; details: co-substrate glucose, apparent, pH and temperature of kinetics not stated (default assay Tris-Cl pH 8 or CPB buffer, 37 °C), varied: cofactor
purified protein [2] = substrate: OC[C@H]1O[C@@H](O)[C@H](O)[C@@H](O)[C@@H]1O; details: with 0.5 mM NADP+, apparent, pH and temperature of kinetics not stated (default assay Tris-Cl pH 8 or CPB buffer, 37 °C)
purified protein [3] = substrate: NC(=O)c1ccc[n+]([C@@H]2O[C@H](COP(=O)(O)OP(=O)(O)OC[C@H]3O[C@@H](n4cnc5c(N)ncnc54)[C@H](OP(=O)(O)O)[C@@H]3O)[C@@H](O)[C@H]2O)c1; details: co-substrate glucose, apparent, pH and temperature of kinetics not stated (default assay Tris-Cl pH 8 or CPB buffer, 37 °C), varied: cofactor

B1: GluDH-BA (Bacillus amyloliquefaciens) (protein)
chain: MYTDLKGKVVAITGASSGLGKAMAIRFGQEQAKVVVNYYSNEKDAQTVKEEIQKAGGEAVIIQGDVTKEEDVKNIVQTAVKEFGTLDVMINNAGMENPVQSHEMPLKDWNKVINTNLTGAFLGSREAIKYYVENDIQGNVINMSSVHEMIPWPLFVHYAASKGGIKLMTETLALEYAPKRIRVNNIGPGAINTPINAEKFADPVQRKDVESMIPMGYIGEPEEIAAVAVWLASKESSYVTGITLFADGGMTKYPSFQAGRG
notes: full length (261 aa, 28 kDa), 6xHis inserted right after start Met, pET23b, E. coli BL21(DE3), Ni-purified; tag cleavage not mentioned
Purified protein [1]
  Km: 0.25 ± 0.03 mM
Purified protein [2]
  Km: 5.5 ± 0.28 mM
  kcat: 70 ± 0.3 s⁻¹
Purified protein [3]
  Km: 0.05 ± 0.004 mM
  kcat: 70 ± 0.3 s⁻¹
